Experimental data published in patent US20250387450A1 (AIKIUM, published 2025).
Values belong to the binder of their own block, whether it stands above or below them.

How the values were obtained:
[1] = biological target: T1, CD74 disordered region peptide (CLIP), PPKPVSKMRMATPLLMQALPMGALP (biotin label); test: modified sandwich ELISA, fluorescence grade by the table's key
T1 construct: also called CD74 Peptide
T1 peptide: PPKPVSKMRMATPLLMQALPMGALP
Description: (§1) Binder proteins were coated on the surface of a high binding capacity 96 well plate by incubating 100 μL of protein at 5 μg/mL in a coating solution (10 mM Tris pH 8.8, 50 mM NaCl), overnight at 4 C. The next morning, the coating solution was aspirated out and wells were washed once with 300 μL ELISA wash buffer (1×PBS, 0.05% Tween-20) and solution was aspirated out. The wells were blocked with 200 μL of a blocking buffer (1×PBS, 0.05% Tween-20, 3% BSA) at room temperature for 1 hour. After one hour, the blocking solution was aspirated out and 100 μL of biotinylated polypeptide in a binding buffer (1×PBS, 0.05% Tween-20, 0.5% BSA) at various concentrations was added to the appropriate well and incubated for 20 minutes. Peptide solution was aspirated out after 20 minutes and wells were washed 5 times with 300 μL of ELISA wash buffer. To detect the biotinylated peptide, 100 μL of streptavidin-HRP (50 ng/ml) was added to each well and incubated for 1 hour. The wells were subsequently washed 5 times with 300 μL of ELISA wash buffer. 100 μL of QuantaBlu Fluorogenic Peroxidase substrate solution was added to each well, incubated for 30 minutes and reaction stopped by adding 100 μL of stop solution. Fluorescent signal from each well was measured using a Biotek Cytation5 plate reader by exciting the fluorophore at […] and measuring emission at 420 nm. Fluorescent signals were plotted as a function of polypeptide concentration.

[2] = biological target: T2, KAAG1 disordered region peptide, PGAAAAHLPRWPPPQLAASRREA (biotin label); test: ELISA: scaffold coated on plate, biotinylated peptide titrated, streptavidin-HRP fluorescence
T2 construct: also called KAAG1 Peptide
T2 peptide: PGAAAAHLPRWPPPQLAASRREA
Description: as §1

[3] = biological target: T3, CYSLTR2 N-terminal disordered region peptide, MERKFMSLQPSISVSEMEPNGTFSNNNSRNCTIENFKREFFP (biotin label); test: as above
T3 construct: also called CysLT2; CysLT2r
T3 peptide: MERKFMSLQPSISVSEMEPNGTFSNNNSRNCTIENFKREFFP
Description: as §1

[4] = biological target: T2, KAAG1 disordered region peptide, …; test: modified sandwich ELISA, fluorescence grade by the table's key
Description: as §1

[5] = biological target: T4, GMERKFMSLQPSISVSEMEPNGTFSNNNSRNCTIENFKREFFP (biotinylated, position not given); test: ELISA: scaffold coated on plate, biotinylated peptide titrated, streptavidin-HRP fluorescence
T4 construct: also called CYSLTR2 (longer peptide of the disordered region)
T4 peptide: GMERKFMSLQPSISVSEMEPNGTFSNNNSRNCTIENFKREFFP
Description: as §1

[6] = biological target: T5, TNFRSF13B disordered region peptide, LPPELRRQRSGEVENNSDNSGRYQ (biotin label); test: as above
T5 construct: also called TNFRSF13B Peptide
T5 peptide: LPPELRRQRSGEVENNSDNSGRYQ
Description: as §1

[7] = biological target: T6, CD40LG short linear epitope peptide, NKEETKKENSFEMQKGDQNPQIAAH (biotin label); test: as above
T6 construct: also called CD40LG Peptide
T6 peptide: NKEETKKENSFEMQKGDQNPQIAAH
Description: as §1

[8] = biological target: T7, CYSLTR2 short linear epitope peptide, SISVSEMEPNGTFSNNNSRNC (N-terminal biotin); test: as above
T7 peptide: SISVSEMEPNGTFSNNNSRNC
Description: as §1

[9] = biological target: T8, KCNA6 short linear epitope peptide, QQQEQQPASGGGGQNGQQAMS (biotin label); test: as above
T8 construct: also called KCNA6 Peptide
T8 peptide: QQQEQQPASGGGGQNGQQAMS
Description: as §1

[10] = biological target: T9, CRACM disordered region polypeptide; test: modified sandwich ELISA, fluorescence grade by the table's key
T9 construct: domain: disordered region
Description: as §1

[11] = biological target: T3, CYSLTR2 N-terminal disordered region …; test: as above
Description: as §1

[12] = biological target: T1, CD74 disordered region peptide (CLIP), …; test: ELISA: scaffold coated on plate, biotinylated peptide titrated, streptavidin-HRP fluorescence
Description: as §1

[13] = biological target: T3, CYSLTR2 N-terminal disordered region …; test: ELISA, fluorescence at 10000 nM peptide divided by the no-scaffold control
Description: as §1

[14] = biological target: T10, 25 amino acid epitope of CLIP (CD74); test: BLI (Octet RED), biotinylated peptide on streptavidin sensor
T10 construct: also called CLIP Peptide
Description: Streptavidin sensor tips for the BLI instrument were equilibrated in an equilibration buffer (1×PBS, 0.05% Tween 20, 0.5% BSA) for 5 minutes. Biotinylated polypeptide in the equilibration buffer at 0.5 μM was loaded on the streptavidin sensor over 60 s. After substrate loading, the sensor tips were washed in the equilibrating buffer for 5 minutes to block non-specific binding and to obtain a baseline reading. Peptide loaded and blocked tips were then introduced into wells containing polypeptides in the equilibrating buffer at varying concentrations. The binding and dissociation data are fit using the OCTET software to obtain kₒₙ, koff and consequently KD, the binding affinity.

[15] = biological target: T5, TNFRSF13B disordered region peptide, …; test: modified sandwich ELISA, grade by the table's key
Description: as §1

[16] = biological target: T11, Urotensin-2 receptor N-terminal peptide, MALTPESPSSFPGLAATGSSVPEPPGGPNATLNSSWASPTEPSSLEDLVATGTI (biotin label); test: modified sandwich ELISA, grade by the table's key
T11 construct: also called Urotensin IIR; GPCR2 (Urotensin II)
T11 peptide: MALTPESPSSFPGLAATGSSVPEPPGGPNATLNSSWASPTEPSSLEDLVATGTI
Description: as §1

[17] = biological target: T7, CYSLTR2 short linear epitope peptide, …; test: ELISA: scaffold coated on plate, N-terminally biotinylated peptide titrated, streptavidin-HRP fluorescence
Description: as §1

MERKFMSLQPSISVSEMEPNG = biological target: T12, MERKFMSLQPSISVSEMEPNG (N-terminal biotin); test: as above
T12 construct: also called CYSLTR2 N-terminal 21-mer peptide
T12 peptide: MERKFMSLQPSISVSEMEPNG
Description: as §1

[18] = biological target: T3, CYSLTR2 N-terminal disordered region …; test: modified sandwich ELISA (FIGS. 30A, 30B)
Description: as §1, with “Fluorescent signals were plotted as a function of polypeptide concentration.” left out

fluorescent signal [1]: > 400000 fluorescentsignal | binding result [2]: no binding (tested: 10000 nM) | binding result [3]: no binding (tested: 10000 nM)
B1: engineered scaffold protein S171 (designed binder)
chain: GDTRPRFLWQLKWECHFYNGTERVRLNERCNYNQEESVRFDSDVGEYRAVTELGRPDAEFSNSQKDNLEQRRAAVDTLCRHNYGVGESFTVQRRSGGGIKEEHVINQAEYYLNPDQSGEFKFDFDGDEIFHVDMAKKETVWRLEEFGRFAIIEAYGALANIAVDKANLEIMTKQSNYT

fluorescent signal [1]: > 400000 fluorescentsignal | fluorescent signal [4]: 50000 to 100000 fluorescentsignal
B2: engineered scaffold protein S055 (designed binder)
chain: GSHSMRYNYTSVSRPGRGEPRFLSEGHVDDTQFVRFDSDAASPREEPRAPWIEQEGPEYWDRNTQIYKAQAQTDRESLRNLRGYYNQSEAGSHTLQSIYGCDVGPDGRLLRGHDQYYYDGKDYISLNEDLRSWTAADTAAQITQRKWEAAREAEQRRAYLEGECVEWLRRYLENGKDKLERADGGSHHHHHHLE

fluorescent signal [1]: > 400000 fluorescentsignal | fluorescent signal [4]: 50000 to 100000 fluorescentsignal
B3: engineered scaffold protein S056 (designed binder)
chain: GSHSMRYNYTSVSRPGRGEPRFLSEGHVDGQPFVRFDSDAASPREEPRAPWIEQEGPEYWDRNTQIYKAQAQTDRESLRNLRGYYNQSEAGLHSLNSIYVCDVGPDGRLLRGHDHYYYDGELYISLNEDLRSWTAADTAAQITQRKWEAAREAEQRRAYLEGECVEWLRRYLENGKDKLERADGGSHHHHHHLE

binding result [5]: binds | binding result [6]: no binding (tested: 10000 nM) | binding result [7]: no binding (tested: 10000 nM) | binding result [8]: binds | binding result [9]: no binding (tested: 10000 nM) | binding result [2]: no binding (tested: 10000 nM)
B4: engineered scaffold protein S194 (designed binder)
chain: MGIKEEHVINQAEYYLNPDQSGEFKFDFDGDEIFHVDMAKKETVWRLEEFGRFASFEAQGALAHIAVDKANLEIMTKRSNYTPMGGGSKARMATGALAQAGGSGGSGDTRPRFLWQLKYECHFFNGTERVRLNERCIYNQEESVRFDSDVGEYRAVTELGRPDAEQWNSQKDHLEQRRAAVDTKCRHNYGVGESFTVQGGSHHHHHH

fluorescent signal [10]: 100000 to 250000 fluorescentsignal | fluorescent signal [1]: > 400000 fluorescentsignal | fluorescent signal [11]: 100000 to 250000 fluorescentsignal | EC50 (read off the curve) [12]: ~300 nM | binding result [8]: binds | Fold Change (Relative Binding) [13]: 18.5 x | Relative Binding (signal over the no-scaffold control) [13]: 18.5 x | Kd [14]: 840 nM
B5: engineered scaffold protein S005 (designed binder)
chain: MIKEEHVIIQAEFYLNPDQSGEFMFDFDGDEIFHVDMAKKETVWRLEEFGRFASFEAQGALANIAVDKANLEIMTKRSNYTPMGDTRPRFLWQLKFECHFFNGTERVRLLERCIYNQEESVRFDSDVGEYRAVTELGRPDAEYWNSQKDLLEQRRAAVDTYCRHNYGVGESFTVQGGSHHHHHHLE
notes: Derived from MHC II; also called scaffold v1.1; v1.1
binding result [15]: no binding (tested: <5000 (fluorescence, key)) | binding result [16]: no binding (tested: <5000 (fluorescence, key))

binding result [17]: binds | binding result (MERKFMSLQPSISVSEMEPNG): no binding (tested: 10000 nM) | fluorescent signal [11]: 100000 to 250000 fluorescentsignal | binding result [5]: binds | binding result [6]: no binding (tested: 10000 nM) | binding result [7]: no binding (tested: 10000 nM) | binding result [9]: no binding (tested: 10000 nM) | binding result [2]: no binding (tested: 10000 nM)
B6: engineered scaffold protein S177 (designed binder)
chain: MIKEEHVINQAEYYLNPDQSGEFKFDFDGDEIFHVDMAKKETVWRLEEFGRFASFEAQGALAHIAVDKANLEIMTKRSNYTPMGDTRPRFLWQLKYECHFFNGTERVRLNERCIYNQEESVRFDSDVGEYRAVTELGRPDAEQWNSQKDHLEQRRAAVDTKCRHNYGVGESFTVQGGSHHHHHHLE

fold higher affinity compared to a non-specific protein binder [18]: > 65 fold | binding result [17]: binds | binding result (MERKFMSLQPSISVSEMEPNG): no binding (tested: 10000 nM) | fluorescent signal [1]: > 400000 fluorescentsignal | fluorescent signal [4]: 250000 to 400000 fluorescentsignal | fluorescent signal [11]: 250000 to 400000 fluorescentsignal | EC50 (read off the curve) [12]: ~500 nM | Fold Change (Relative Binding) [13]: 37.2 x | Relative Binding (signal over the no-scaffold control) [13]: 37.2 x
B7: engineered scaffold protein S090 (designed binder)
chain: IKEEHSIRQNEMYLNPDQSGLFEFHLDGQPIFRVDMQKKRTKWQLEEFGRFASFEAQGALANIAVDKANLEIMTKRSNQSEAGSHSWQLIFVCEFHEGTESVRLSERCYYNQELSVSFNSDVGEYRAVTELGRPDAEYWNSQKDLLEQRRAAVDTYCRHNYGVGESFTVQRRGGSHHHHHHLE
notes: also called scaffold v1.2; v1.2
binding result [15]: no binding (tested: <5000 (fluorescence, key))

fluorescent signal [1]: > 400000 fluorescentsignal | binding result [2]: no binding (tested: 10000 nM) | binding result [3]: no binding (tested: 10000 nM)
B8: engineered scaffold protein S164 (designed binder)
chain: GIKEEHSIRQNEKYNNPDQSGNFEFHLDGQPIFRVDMQKKRTKWQLEEFGRFASFEAQGALANIAVFKINLEIMTKRSNQSEAGSHSWQLNFTCEFHEGTESVRLSERSYYNQENFVSFNSDVGEYRATTELGRPMAEYVNSQKDTLEQRRAAVDTYCRHNYGVGEYFTVQRR
